Laboratory results: patent US20150338398
Where two headings read alike, the source gives them in different places.

Test system: TAL-PrA (GAL1 promoter TAL)
Settings: ChIP-qPCR

Row | Substance | binding signal | further results
1 | AAATTAATCAGCGGTGAC (double strand) [REV7 similar site (ChrIX)] | 0.77 fold vs ACT1 | –
2 | GAL1 promoter TAL target (ChrII 278829-278846) | – | binding signal (not enriched in glucose): 6.14 fold vs ACT1
3 | GGGGTAATTAAAATTTCT (double strand) [IQG1 similar site (ChrXVI)] | 0.76 fold vs ACT1 | –
4 | GGGGTAATTAATCATTTT (double strand) [SCC2 similar site (ChrIV)] | 0.65 fold vs ACT1 | –
5 | GGGGTAATTAATGTAAAT (double strand) [IDP3 similar site (ChrXIV)] | 0.94 fold vs ACT1 | –
6 | TTATACATTAATCAGCGA (double strand) [ENB1 similar site (ChrXV)] | – | binding signal (GAL1 at least 4.6-fold better): 1.34 fold vs ACT1
